According to US11306156:
Read-outs that look alike come from different tables or passages of the source. Blank lines part the entries; values can stand above or below the substance they belong to.

Tests used:
[1] = target: tissue factor (TF) antigen (UniProt P13726); assay: SPR; against wild-type D3H44 Fab; * estimated from the same Fab with another L chain tag
[2] = target: tissue factor (TF) antigen (UniProt P13726); assay: SPR (ProteOn), Fab captured on anti-penta His, TF as analyte, 1:1 fit; * estimated from the same Fab with another L chain tag
[3] = target: D3H44 light chain Q124E_Q160E_T180E; assay: SMCA: 2 heavy + 2 light chains co-expressed, protein A, LC-MS; competing light chain m4
[4] = target: D3H44 light chain P44F_S131K; assay: SMCA: LC-MS of protein A purified product after co-expression of H1, H2, L1, L2 in CHO-3E7; competing light chain m46
[5] = target: D3H44 light chain P44F_Q124R_Q160K_T178R; assay: as above
[6] = target: D3H44 light chain Q124E_V133W_S176T_T178L_T180E; assay: SMCA co-expression, LC-MS; competing light chain m6
[7] = target: D3H44 light chain Q124E_V133W_S176T_T178L_T180E; assay: SMCA: 2 heavy + 2 light chains co-expressed, protein A, LC-MS; competing light chain m24
[8] = target: D3H44 light chain Q124R_Q160K_T178R; assay: SMCA: LC-MS of protein A purified product after co-expression of H1, H2, L1, L2 in CHO-3E7; competing light chain m48
[9] = target: D3H44 light chain Q124R; assay: SMCA: LC-MS of protein A purified product after co-expression of H1, H2, L1, L2 in CHO-3E7; competing light chain m50
[10] = target: D3H44 Fab heavy chain L124E_K145M_Q179E; assay: LCCA, SPR of light chain tags; L1:L2 DNA 1:3 normalized to 1:1; competitor m8
[11] = target: D3H44 Fab heavy chain L124R_D146N_Q179K; assay: as above
[12] = target: D3H44 Fab heavy chain L124E_L143E_K145T; assay: LCCA, SPR of light chain tags; L1:L2 DNA 1:3 normalized to 1:1; competitor m10
[13] = target: D3H44 Fab heavy chain L124R_Q179K; assay: as above
[14] = target: D3H44 Fab heavy chain L124E_L143E_K145T; assay: LCCA, SPR of light chain tags; L1:L2 DNA 1:9 normalized to 1:1; competitor m10
[15] = target: D3H44 Fab heavy chain L124R_Q179K; assay: as above
[16] = target: D3H44 Fab heavy chain L124E_L143E_K145M; assay: LCCA, L1:L2 DNA 1:3 normalised to 1:1, SPR of light chain tags; competitor m55
[17] = target: D3H44 Fab heavy chain L124R_D146N_Q179K; assay: as above
[18] = target: D3H44 Fab heavy chain L124R_D146N_Q179K (H1 of LCCA sets 9358, 9359, 9357, 9351, 9352, 9353, 9354, 9350)
[19] = target: D3H44 Fab heavy chain L124R_D146N_Q179K (H1 of LCCA sets 9358, 9359, 9357, 9351, 9352, 9353, 9354, 9350); remark: listed apart in the source
[20] = target: D3H44 Fab heavy chain L124E_L143D_K145T (H1 of LCCA sets 9214, 9217, 9216, 9219, 9220, 9225, 9228, 9229); assay: LCCA: H1 co-expressed with L1 and L2 (DNA 333:250:749 ng), His-tag capture on SPR chip, light chain tags detected with anti-HA/anti-FLAG; competitor L1 Q124K_V133G_S176R_T178K
[21] = target: D3H44 Fab heavy chain L124E_L143D_K145T (H1 of LCCA sets 9214, 9217, 9216, 9219, 9220, 9225, 9228, 9229); assay: LCCA: H1 co-expressed with L1 and L2 (DNA 333:250:749 ng), His-tag capture on SPR chip, light chain tags detected with anti-HA/anti-FLAG; competitor L1 Q124K_V133G_S176R_T178R
[22] = target: D3H44 Fab heavy chain L124E_L143E_K145M (H1 of LCCA sets 9269, 9266, 9267, 9260, 9262, 9263); assay: as above
[23] = target: D3H44 Fab heavy chain L124R_D146N_Q179K (H1 of LCCA sets 9358, 9359, 9357, 9351, 9352, 9353, 9354, 9350); assay: LCCA: H1 co-expressed with L1 and L2 (DNA 333:250:749 ng), His-tag capture on SPR chip, light chain tags detected with anti-HA/anti-FLAG; competitor L2 Q124K_V133G_Q160K_S176R
[24] = target: D3H44 Fab heavy chain L124R_D146N_Q179K (H1 of LCCA sets 9358, 9359, 9357, 9351, 9352, 9353, 9354, 9350); assay: LCCA: H1 co-expressed with L1 and L2 (DNA 333:250:749 ng), His-tag capture on SPR chip, light chain tags detected with anti-HA/anti-FLAG; competitor L2 Q124K_V133G_S176R_T178K
[25] = target: D3H44 Fab heavy chain L124E_L143E_K145M; assay: LCCA, L1:L2 DNA 1:3 normalised to 1:1, SPR of light chain tags; competitor m56
[26] = target: D3H44 Fab heavy chain L124R_D146N_Q179K; assay: as above
[27] = target: D3H44 Fab heavy chain L124E_L143D_K145T (H1 of LCCA sets 9214, 9217, 9216, 9219, 9220, 9225, 9228, 9229)
[28] = target: D3H44 Fab heavy chain L124E_L143E_K145M (H1 of LCCA sets 9269, 9266, 9267, 9260, 9262, 9263)
[29] = target: D3H44 Fab heavy chain L124E_L143D_K145T (H1 of LCCA sets 9214, 9217, 9216, 9219, 9220, 9225, 9228, 9229); remark: listed apart in the source
[30] = target: D3H44 Fab heavy chain L124E_L143E_K145M (H1 of LCCA sets 9269, 9266, 9267, 9260, 9262, 9263); remark: listed apart in the source
[31] = target: D3H44 Fab heavy chain L124E_L143D_K145T (H1 of LCCA sets 9214, 9217, 9216, 9219, 9220, 9225, 9228, 9229); assay: LCCA: H1 co-expressed with L1 and L2 (DNA 333:250:749 ng), His-tag capture on SPR chip, light chain tags detected with anti-HA/anti-FLAG; competitor L2 V133G_S176D_T178D_T180E
[32] = target: D3H44 Fab heavy chain L124E_L143E_K145M (H1 of LCCA sets 9269, 9266, 9267, 9260, 9262, 9263); assay: as above
[33] = target: D3H44 Fab heavy chain L124R_D146N_Q179K (H1 of LCCA sets 9358, 9359, 9357, 9351, 9352, 9353, 9354, 9350); assay: LCCA: H1 co-expressed with L1 and L2 (DNA 333:250:749 ng), His-tag capture on SPR chip, light chain tags detected with anti-HA/anti-FLAG; competitor L1 Q124E_V133G_S176D_T178E_T180E
[34] = target: D3H44 Fab heavy chain L124E_L143D_K145T (H1 of LCCA sets 9214, 9217, 9216, 9219, 9220, 9225, 9228, 9229); assay: LCCA: H1 co-expressed with L1 and L2 (DNA 333:250:749 ng), His-tag capture on SPR chip, light chain tags detected with anti-HA/anti-FLAG; competitor L2 Q124E_V133G_S176D_T178D_T180E
[35] = target: D3H44 Fab heavy chain L124E_L143D_K145T (H1 of LCCA sets 9214, 9217, 9216, 9219, 9220, 9225, 9228, 9229); assay: LCCA: H1 co-expressed with L1 and L2 (DNA 333:250:749 ng), His-tag capture on SPR chip, light chain tags detected with anti-HA/anti-FLAG; competitor L2 Q124E_V133G_S176D_T178E_T180E

Change in KD with respect to wild type (-(log(KD design) - log(KD wt))) [1]: -0.12 | Kd [2]: 0.21 nM
Substance: D3H44 Fab heterodimer, H1 L124E_L143E_K145T / L1 Q124K_V133G_S176R_T178K (H1L1 of LCCA sets 9308 and 9300)

% H1L1 Pairing (over all H1 species) [3]: 100%
Substance: D3H44 heavy chain H172R_S186R (from UniProt P0DOX5 2-448)

% H1L1 Pairing (over all H1 species) [4]: 75.5%
Substance: D3H44 heavy chain L45P_K145T_H172R_Q179E (from UniProt P0DOX5 2-448)

% H1L1 Pairing (over all H1 species) [5]: 88.1%
Substance: D3H44 heavy chain L45P_L143E_K145T (from UniProt P0DOX5 2-448)

% H1L1 Pairing (over all H1 species) [6]: 100% | Change in % H1L1 Pairing (over all H1 species) with respect to wild type [6]: 38.1% | % H1L1 Pairing (over all H1 species) [7]: 100%
Substance: D3H44 heavy chain L124A_L143F_Q179K (from UniProt P0DOX5 2-448)

% H1L1 Pairing (over all H1 species) [8]: 83.2% | % H1L1 Pairing (over all H1 species) [9]: 91.5%
Substance: D3H44 heavy chain L143E_K145T (from UniProt P0DOX5 2-448)

H1L1:H1L2 normalized median ratio (% of heavy chain paired) [10]: 6 | H2L2:H2L1 normalized median ratio (% of heavy chain paired) [11]: 90 | H1L1:H1L2 normalized median ratio (% of heavy chain paired) [12]: 5 | H2L2:H2L1 normalized median ratio (% of heavy chain paired) [13]: 92 | H1L1:H1L2 normalized median ratio (% of heavy chain paired) [14]: 2 | H2L2:H2L1 normalized median ratio (% of heavy chain paired) [15]: 84 | H1L1:H1L2 normalized median ratio [16]: 16% | H2L2:H2L1 normalized median ratio [17]: 84% | median LCCA performance normalized to a L1:L2 DNA ratio of 1:1 (ratio H1-L1:H1-L2), H1-L1 share (ratio part of 100) [18]: 90 | median LCCA performance normalized to a L1:L2 DNA ratio of 1:1 (ratio H1-L1:H1-L2), H1-L1 share (ratio part of 100) [19]: 89 | median LCCA performance normalized to a L1:L2 DNA ratio of 1:1 (ratio H1-L1:H1-L2), H1-L2 share (ratio part of 100) [20]: 21 | median LCCA performance normalized to a L1:L2 DNA ratio of 1:1 (ratio H1-L1:H1-L2), H1-L2 share (ratio part of 100) [21]: 17 | median LCCA performance normalized to a L1:L2 DNA ratio of 1:1 (ratio H1-L1:H1-L2), H1-L2 share (ratio part of 100) [22]: 16 | median LCCA performance normalized to a L1:L2 DNA ratio of 1:1 (ratio H1-L1:H1-L2), H1-L1 share (ratio part of 100) [23]: 82 | median LCCA performance normalized to a L1:L2 DNA ratio of 1:1 (ratio H1-L1:H1-L2), H1-L1 share (ratio part of 100) [24]: 84
Substance: D3H44 light chain Q124E_V133G_S176D_T178E_T180E

H1L1:H1L2 normalized median ratio [25]: 84% | H1L1:H1L2 normalized median scalar value ln(r1/f1) [25]: 1.67 | H2L2:H2L1 normalized median ratio [26]: 16% | median LCCA performance normalized to a L1:L2 DNA ratio of 1:1 (ratio H1-L1:H1-L2), H1-L1 share (ratio part of 100) [27]: 84 | median LCCA performance normalized to a L1:L2 DNA ratio of 1:1 (ratio H1-L1:H1-L2), H1-L1 share (ratio part of 100) [28]: 85 | median LCCA performance normalized to a L1:L2 DNA ratio of 1:1 (ratio H1-L1:H1-L2), H1-L1 share (ratio part of 100) [29]: 81 | median LCCA performance normalized to a L1:L2 DNA ratio of 1:1 (ratio H1-L1:H1-L2), H1-L1 share (ratio part of 100) [30]: 88 | median LCCA performance normalized to a L1:L2 DNA ratio of 1:1 (ratio H1-L1:H1-L2), H1-L1 share (ratio part of 100) [31]: 82 | median LCCA performance normalized to a L1:L2 DNA ratio of 1:1 (ratio H1-L1:H1-L2), H1-L1 share (ratio part of 100) [32]: 63 | median LCCA performance normalized to a L1:L2 DNA ratio of 1:1 (ratio H1-L1:H1-L2), H1-L2 share (ratio part of 100) [33]: 16 | median LCCA performance normalized to a L1:L2 DNA ratio of 1:1 (ratio H1-L1:H1-L2), H1-L1 share (ratio part of 100) [34]: 85 | median LCCA performance normalized to a L1:L2 DNA ratio of 1:1 (ratio H1-L1:H1-L2), H1-L1 share (ratio part of 100) [35]: 79
Substance: D3H44 light chain Q124K_V133G_S176R_T178K
